In experiment [1] the target is T1, Human CXCL10-His (human, UniProt P02778 22-98).
T1 construct: also called hCXCL10; recombinant human CXCL10 protein; not shown: His tag (named CXCL10-His)
T1 sequence (looked up): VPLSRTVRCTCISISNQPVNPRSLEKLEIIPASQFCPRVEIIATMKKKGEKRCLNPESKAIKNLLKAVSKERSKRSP
The experiment is described as follows: phage ELISA.

For experiment [2], the target named is T2, α-myc (anti-myc antibody coated as second antigen).
T2 construct: Coated at 100 ng per well beside CXCL10 in the phage ELISA; in effect a control of scFv display; also called a-myc
The experiment is described as follows: phage ELISA.

In experiment [3] the target is T3, His (control coat of Table 2).
T3 construct: Not explained in the text
As to the kind of experiment: phage ELISA.

Experiment [4] addresses T1, Human CXCL10-His. As to the kind of experiment: phage ELISA, CXCL10/a-myc. Here is the method:
Two types of antigens such as CXCL10 and α-myc were put into a 96-well immunoplate at 100 ng per well and coated with a coating buffer at 4° C. for 16 hours, and wells were blocked with skim milk (4%) dissolved in PBS. Each well was washed with 0.2 ml of PBS-Tween20 (0.05%), and the monoclonal scFv-phages obtained by the third panning (each 100 scFv-phage) were added at 100 μl per well, and allowed to be reacted at room temperature for 2 hours. Each well was washed again with 0.2 ml of PBS-Tween20 (0.05%) four times, and a secondary antibody, anti-M13-HRP, was diluted at 1/2000 and allowed to be reacted at room temperature for 1 hour. Each well was washed with 0.2 ml of PBS-Tween20 (0.05%) and allowed to develop a color to measure an absorbance at 490 nm.
For orientation: In an ELISA, binding on a coated surface is turned into a signal by an enzyme label.

The target in experiment [5] is T1, Human CXCL10-His. The experiment is described as follows: ELISA, IgG titrated from 50 nM on coated CXCL10. Here is the method: Specifically, ELISA was carried out by coating a recombinant human CXCL10 protein with a coating buffer at 100 ng per well in a 96-well immunoplate at 4° C. for 16 hours, and a reaction in each well was blocked with skim milk (4%) dissolved in PBS. 0.2 ml of PBS-Tween20 (0.05%) was added to wash each well, monoclonal antibodies were sequentially diluted from 50 nM by ½, added at 100 μl each to an antigen-coated plate, and allowed to be reacted at room temperature for 2 hours. 0.2 ml of PBS-Tween20 (0.05%) was added again to wash each well three times, and a secondary antibody, anti-human Fc-HRP, was diluted at 1:4000 and allowed to be reacted at room temperature for 50 minutes. The plate was washed with 0.2 ml of PBS-Tween20 (0.05%), and a substrate solution prepared by adding an OPD table to a PC buffer was added to the plate at 100 μl per well to allow color development for 5 minutes, followed by measuring an absorbance at 490 nm using a spectrophotometer. The ELISA result was analyzed using a Graphpad prism ver. 4 software (CA 92037: Graphpad Software Inc., USA).

B1: scFv-phage clone 10E (scFv)
scFv: QVQLVQSGGGVVQPGRSLRLSCAASGFTFNSYGMHWVRQAPGKGPEWVAVISYDGNSKYYADSVKGRFTISRDNSKTTLYLQMNSLRSEDTAVYYCARDSGSYLDWYFDLWGRGTLVTVSSGLGGLGGGGSGGGGSGGSSGVGSQFVLTQPPSVSGAPGQRVTISCTGSRSNFGAGHDVHWYQQLPGTAPKLLIYGNNNRPSGVPDRFSGSKSGTSASLAITGLQAEDEADYYCQSYDSRLGVVFGGGTKLTVL
notes: also called E10 scFv
In the case of B1, the OD490 in experiment [1] amounted to 3.05; in experiment [2], 0.307; in experiment [3], 0.051. Further, the Ratio in experiment [4] amounted to 9.95.

B2: scFv-phage clone 10D (scFv)
scFv: QVQLVQSGGGVVQPGRSLRLSCAASGFTFSSYGMHWVRQAPGKGLEWVAVISYDGSNKYYADSVKGRFTISRDNSKNTLYLQMNSLRSEDTAVYYCARDKRAAFDIWGQGKMVTVSSGLGGLGGGGSGGGGSGGSSGVGSSYELTQAPSLSVSPGQTANIICSGDNLRTKYVSWYQQKPGQSPLLVIYQDTRRPSGIPARFSGSNSGNTATLTISGTQTERESTYYCMTWDVDTTSMIFGGGTKLTVL
For the molecule B2, the OD490 in experiment [1] worked out at 2.85; in experiment [3], 0.178. In experiment [4], the Ratio turned out to be 0.945.

B3: anti-CXCL10 antibody 9E (whole IgG) (antibody, V domains shown)
VH: QVQLVESGGGVVQPGRSLRLSCAASGFTFSSYGMHWVRQAPGKGLEWVAVISYDGNNKYYVDSVKGRFTISRDNSKNTLYLQMNSLRSEDTAVYYCARDSGSYLDWYFDLWGRGTLVTVSS
VL: QPPSVSVAPGKTARIACGGGNIGDKSVHWYQQKPGQAPVLVIFYDSDRPSGIPKRLSGSNSGNTATLTISRVEAGDEGDYYCQVWDSSSDRPVFGGGTKLTVLG
notes: Whole-form IgG
Take B3: binding in experiment [5] was put at a Kd of 6.1 pM.

B4: anti-CXCL10 antibody 10E (whole IgG) (antibody, V domains shown)
VH: QVQLVQSGGGVVQPGRSLRLSCAASGFTFNSYGMHWVRQAPGKGPEWVAVISYDGNSKYYADSVKGRFTISRDNSKTTLYLQMNSLRSEDTAVYYCARDSGSYLDWYFDLWGRGTLVTVSS
VL: QPPSVSGAPGQRVTISCTGSRSNFGAGHDVHWYQQLPGTAPKLLIYGNNNRPSGVPDRFSGSKSGTSASLAITGLQAEDEADYYCQSYDSRLGVVFGGGTKLTVLG
notes: also called E10
In experiment [5], B4 gave a Kd of 7 pM.

B5: scFv-phage clone 12D (scFv)
chain: QVQLVQSGGGVVQPGRSLRLSCVASAFTFSRYGMHWVRQAPGKGLEWVALISYDGSSEYYADSVKGRFNISRDNSKNTVYLQMNSLRAEDTAVYYCVKDGLAAKLGHWGQGTLVTVSSQAPSLSVSPGQTANIICSGDNLRTKYVSWYQQKPGQSPLLVIYQDTRRPSGIPARFSGSNSGNTATLTISGTQTERESTYYCMTWDVDTTSMIFGGGTKLTVLG
In experiment [1], B5 yielded an OD490 of 3.02. The Ratio in experiment [4] is 3.4.

B6: scFv-phage clone 9E (scFv)
chain: QVQLVESGGGVVQPGRSLRLSCAASGFTFSSYGMHWVRQAPGKGLEWVAVISYDGNNKYYVDSVKGRFTISRDNSKNTLYLQMNSLRSEDTAVYYCARDSGSYLDWYFDLWGRGTLVTVSSQPPSVSVAPGKTARIACGGGNIGDKSVHWYQQKPGQAPVLVIFYDSDRPSGIPKRLSGSNSGNTATLTISRVEAGDEGDYYCQVWDSSSDRPVFGGGTKLTVLG
The molecule B6 came in with an OD490 in experiment [1] of 2.96. For the same molecule, the Ratio in experiment [4] came to 1.48.

B7: anti-CXCL10 antibody 12D (whole IgG) (antibody, V domains shown)
VH: QVQLVQSGGGVVQPGRSLRLSCVASAFTFSRYGMHWVRQAPGKGLEWVALISYDGSSEYYADSVKGRFNISRDNSKNTVYLQMNSLRAEDTAVYYCVKDGLAAKLGHWGQGTLVTVSS
VL: QAPSLSVSPGQTANIICSGDNLRTKYVSWYQQKPGQSPLLVIYQDTRRPSGIPARFSGSNSGNTATLTISGTQTERESTYYCMTWDVDTTSMIFGGGTKLTVLG
notes: Whole-form IgG
In experiment [5], B7 registered a Kd of 4.7 pM.

What is called Kd is a measure of binding affinity in units of concentration.

(Values after patent US20160108118A1 (METABOLIC ENGINEERING LABORATORIES, published 2016).)
